Results from patent US20190071490A1, “Preventing Post-Ictal Headaches” (Beth Israel Deaconess Medical Center, Inc., priority 2017, published 2019).

T1: rat α-CGRP (Rattus norvegicus, UniProt P01256)
T1 construct: rat α (1-37); purchased GenScript Corporation or Global Peptide Services
T1 sequence (P01256 83-119 limits assumed): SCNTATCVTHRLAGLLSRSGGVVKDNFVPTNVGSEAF

T2: human α-CGRP (Homo sapiens, UniProt P06881)
T2 construct: 1-37 (WT); purchased GenScript Corporation or Global Peptide Services
T2 sequence (P06881 83-119 limits assumed): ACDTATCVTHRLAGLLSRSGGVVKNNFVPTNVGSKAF


Legend:
[1] = molecular target: T1, rat α-CGRP; test: Biacore SPR affinity of Fab fragments to N-biotinylated rat α-CGRP on SA chip; type: binding; details: 37° C., screening mode except underlined values
Description: (§1) Affinity determination of the Fabs. Affinities of the anti-CGRP monoclonal antibodies were determined at either 25° C. or 37° C. using the BIACORE3000™ surface plasmon resonance (SPR) system (Biacore, INC, Piscataway N.J.) with the manufacture's own running buffer, HBS-EP (10 mM HEPES pH 7.4, 150 mM NaCl, 3 mM EDTA, 0.005% v/v polysorbate P20). Affinity was determined by capturing N-terminally biotinylated CGRP peptides (custom ordered from GenScript Corporation, New Jersey or Global Peptide Services, Colorado) via pre-immobilized streptavidin on SA chip and measuring binding kinetics of antibody Fab titrated across the CGRP surface. Biotinylated CGRP was diluted into HBS-EP and injected over the chip at a concentration of less than 0.001 mg/ml. Using variable flow time across the individual chip channels, two ranges of antigen density were achieved: <50 response units (RU) for detailed kinetic studies and about 800 RU for concentration studies and screening. […] After each binding cycle, surfaces were regenerated with 25 mM NaOH in 25% v/v ethanol, which was tolerated over hundreds of cycles. Kinetic association rate (kon) and dissociation rate (koff) were obtained simultaneously by fitting the data to a 1:1 Langmuir binding model (Karlsson et al. (1994). Methods Enzymology 6. 99-110) using the BIAevaluation program. Global equilibrium dissociation constants (KD) or “affinities” were calculated from the ratio KD=koff/kon.
(§2) Biacore assay for affinity determination. […] All Biacore assays were conducted in HBS-EP running buffer (10 mM HEPES pH 7.4, 150 mM NaCl, 3 mM EDTA, 0.005% v/v polysorbate P20). CGRP surfaces were prepared by diluting the N-biotinylated CGRP to a concentration of less than 0.001 mg/mL into HBS-EP buffer and injecting it across the SA sensor chip using variable contact times. Low capacity surfaces, corresponding to capture levels <50 response units (RU) were used for high-resolution kinetic studies, whereas high capacity surfaces (about 800 RU of captured CGRP) were used for concentration studies, screening, and solution affinity determinations. […] Samples were typically injected for 1 minute at 100 μL/min and dissociation times of at least 10 minutes were allowed. After each binding cycle, surfaces were regenerated with 25 mM NaOH in 25% v/v ethanol, which was tolerated over hundreds of cycles. An entire titration series (typically generated in duplicate) was fit globally to a 1:1 Langmuir binding model using the BIAevaluation program. This returned a unique pair of association and dissociation kinetic rate constants (respectively, kon and koff) for each binding interaction, whose ratio gave the equilibrium dissociation constant (KD=koff/kon).
(§3) High-resolution analysis of binding interactions with extremely slow off rates. […] The protocol described above was used with the following modifications. The association rate constant (kon) was determined by injecting a 2-fold titration series (in duplicate) spanning 550 nM-1 nM for 30 seconds at 100 μL/min and allowing only a 30 second dissociation phase. The dissociation rate constant (koff) was determined by injecting three concentrations (high, medium, and low) of the same titration series in duplicate for 30 seconds and allowing a 2-hour dissociation phase. The affinity (KD) of each interaction was obtained by combining the kon and koff values obtained in both types of experiments, as shown in Table 4.

[2] = molecular target: T2, human α-CGRP; test: Biacore SPR affinity of Fab fragments to N-biotinylated human α-CGRP on SA chip; type: binding; details: 37° C., screening mode except underlined values
Description: as §1, §2, §3

| α-rat koff [1] [s⁻¹] | α-human koff [2] [s⁻¹] | α-rat koff (1/s) [1] | Molecule |
| --- | --- | --- | --- |
| 0.00429 | 0.00049 | – | M81: G1 variant; L1 R28N T30S; L2 L56S; H2 E54K A57N S58E; HC-FW3 L99T A100V (antibody, V domains shown) VH: EVQLVESGGGLVQPGGSLRLSCAASGFTFSNYWISWVRQAPGKGLEWVAEIRSKSDNEATHYAEAVKGRFTISRDNAKNSLYLQMNSLRAEDTAVYYCTVYFDYGLAIQNYWGQGTLVTVSS VL: EIVLTQSPATLSLSPGERATLSCKASKNVSTYVSWYQQKPGQAPRLLIYGASNRYSGIPARFSGSGSGTDFTLTISSLEPEDFAVYYCSQSYNYPYTFGQGTKLEIK |
| 0.0176 | 0.00108 | – | M84: G1 variant; L1 R28N T30V; L2 A51H L56T; H2 E54N A57N; HC-FW3 L99T A100V (antibody, V domains shown) VH: EVQLVESGGGLVQPGGSLRLSCAASGFTFSNYWISWVRQAPGKGLEWVAEIRSNSDNSATHYAEAVKGRFTISRDNAKNSLYLQMNSLRAEDTAVYYCTVYFDYGLAIQNYWGQGTLVTVSS VL: EIVLTQSPATLSLSPGERATLSCKASKNVVTYVSWYQQKPGQAPRLLIYGHSNRYTGIPARFSGSGSGTDFTLTISSLEPEDFAVYYCSQSYNYPYTFGQGTKLEIK |
| 0.00699 | 0.000877 | – | M82: G1 variant; L1 R28N T30V; L2 A51H L56T; H2 A57N; HC-FW3 L99T A100V (antibody, V domains shown) VH: EVQLVESGGGLVQPGGSLRLSCAASGFTFSNYWISWVRQAPGKGLEWVAEIRSESDNSATHYAEAVKGRFTISRDNAKNSLYLQMNSLRAEDTAVYYCTVYFDYGLAIQNYWGQGTLVTVSS VL: EIVLTQSPATLSLSPGERATLSCKASKNVVTYVSWYQQKPGQAPRLLIYGHSNRYTGIPARFSGSGSGTDFTLTISSLEPEDFAVYYCSQSYNYPYTFGQGTKLEIK |
| – | 0.000933 | No binding | M83: G1 variant; L1 R28N T30V; L2 A51H L56T; H2 E54K A57N S58M; H61F (printed in L1 column); HC-FW3 L99T A100V (antibody, V domains shown) VH: EVQLVESGGGLVQPGGSLRLSCAASGFTFSNYWISWVRQAPGKGLEWVAEIRSKSDNMATFYAEAVKGRFTISRDNAKNSLYLQMNSLRAEDTAVYYCTVYFDYGLAIQNYWGQGTLVTVSS VL: EIVLTQSPATLSLSPGERATLSCKASKNVVTYVSWYQQKPGQAPRLLIYGHSNRYTGIPARFSGSGSGTDFTLTISSLEPEDFAVYYCSQSYNYPYTFGQGTKLEIK |

Continued, molecule first:

| Molecule | α-rat koff [1] [s⁻¹] | α-human koff [2] [s⁻¹] | α-rat koff (1/s) [1] |
| --- | --- | --- | --- |
| M77: G1 variant; L1 R28N T30S; L2 G50A L56T; H2 E54K A57D; HC-FW3 L99T A100V (antibody, V domains shown) VH: EVQLVESGGGLVQPGGSLRLSCAASGFTFSNYWISWVRQAPGKGLEWVAEIRSKSDDSATHYAEAVKGRFTISRDNAKNSLYLQMNSLRAEDTAVYYCTVYFDYGLAIQNYWGQGTLVTVSS VL: EIVLTQSPATLSLSPGERATLSCKASKNVSTYVSWYQQKPGQAPRLLIYAASNRYTGIPARFSGSGSGTDFTLTISSLEPEDFAVYYCSQSYNYPYTFGQGTKLEIK | 0.0143 | 0.000477 | – |
| M23: G1 variant; L1 R28G; HC-FW3 L99T A100V (antibody, V domains shown) VH: EVQLVESGGGLVQPGGSLRLSCAASGFTFSNYWISWVRQAPGKGLEWVAEIRSESDASATHYAEAVKGRFTISRDNAKNSLYLQMNSLRAEDTAVYYCTVYFDYGLAIQNYWGQGTLVTVSS VL: EIVLTQSPATLSLSPGERATLSCKASKGVTTYVSWYQQKPGQAPRLLIYGASNRYLGIPARFSGSGSGTDFTLTISSLEPEDFAVYYCSQSYNYPYTFGQGTKLEIK | 0.000799 | 0.00013 | – |
| M79: G1 variant; L1 R28N T30S; L2 G50A L56T; H2 E54K A57P; HC-FW3 L99T A100V (antibody, V domains shown) VH: EVQLVESGGGLVQPGGSLRLSCAASGFTFSNYWISWVRQAPGKGLEWVAEIRSKSDPSATHYAEAVKGRFTISRDNAKNSLYLQMNSLRAEDTAVYYCTVYFDYGLAIQNYWGQGTLVTVSS VL: EIVLTQSPATLSLSPGERATLSCKASKNVSTYVSWYQQKPGQAPRLLIYAASNRYTGIPARFSGSGSGTDFTLTISSLEPEDFAVYYCSQSYNYPYTFGQGTKLEIK | 0.19 | 0.00129 | – |
| M21: G1 variant; L1 R28W; HC-FW3 L99S (antibody, V domains shown) VH: EVQLVESGGGLVQPGGSLRLSCAASGFTFSNYWISWVRQAPGKGLEWVAEIRSESDASATHYAEAVKGRFTISRDNAKNSLYLQMNSLRAEDTAVYYCSAYFDYGLAIQNYWGQGTLVTVSS VL: EIVLTQSPATLSLSPGERATLSCKASKWVTTYVSWYQQKPGQAPRLLIYGASNRYLGIPARFSGSGSGTDFTLTISSLEPEDFAVYYCSQSYNYPYTFGQGTKLEIK | 0.000695 | 0.000142 | – |
| M20: G1 variant; L1 R28W; HC-FW3 L99R A100L (antibody, V domains shown) VH: EVQLVESGGGLVQPGGSLRLSCAASGFTFSNYWISWVRQAPGKGLEWVAEIRSESDASATHYAEAVKGRFTISRDNAKNSLYLQMNSLRAEDTAVYYCRLYFDYGLAIQNYWGQGTLVTVSS VL: EIVLTQSPATLSLSPGERATLSCKASKWVTTYVSWYQQKPGQAPRLLIYGASNRYLGIPARFSGSGSGTDFTLTISSLEPEDFAVYYCSQSYNYPYTFGQGTKLEIK | 0.00144 | 0.000136 | – |
| M78: G1 variant; L1 R28N T30S; L2 G50A L56T; H2 E54K A57N S58T; HC-FW3 L99T A100V (antibody, V domains shown) VH: EVQLVESGGGLVQPGGSLRLSCAASGFTFSNYWISWVRQAPGKGLEWVAEIRSKSDNTATHYAEAVKGRFTISRDNAKNSLYLQMNSLRAEDTAVYYCTVYFDYGLAIQNYWGQGTLVTVSS VL: EIVLTQSPATLSLSPGERATLSCKASKNVSTYVSWYQQKPGQAPRLLIYAASNRYTGIPARFSGSGSGTDFTLTISSLEPEDFAVYYCSQSYNYPYTFGQGTKLEIK | 0.167 | 0.00131 | – |
| M22: G1 variant; L1 R28W; HC-FW3 L99T (antibody, V domains shown) VH: EVQLVESGGGLVQPGGSLRLSCAASGFTFSNYWISWVRQAPGKGLEWVAEIRSESDASATHYAEAVKGRFTISRDNAKNSLYLQMNSLRAEDTAVYYCTAYFDYGLAIQNYWGQGTLVTVSS VL: EIVLTQSPATLSLSPGERATLSCKASKWVTTYVSWYQQKPGQAPRLLIYGASNRYLGIPARFSGSGSGTDFTLTISSLEPEDFAVYYCSQSYNYPYTFGQGTKLEIK | 0.0011 | 0.000116 | – |
| M80: G1 variant; L1 R28N T30S; L2 L561; H2 E54K A57N; S58V (printed in L1 column); HC-FW3 L99T A100V (antibody, V domains shown) VH: EVQLVESGGGLVQPGGSLRLSCAASGFTFSNYWISWVRQAPGKGLEWVAEIRSKSDNVATHYAEAVKGRFTISRDNAKNSLYLQMNSLRAEDTAVYYCTVYFDYGLAIQNYWGQGTLVTVSS VL: EIVLTQSPATLSLSPGERATLSCKASKNVSTYVSWYQQKPGQAPRLLIYGASNRYIGIPARFSGSGSGTDFTLTISSLEPEDFAVYYCSQSYNYPYTFGQGTKLEIK | 0.0993 | 0.00209 | – |
